In article PMC9482650, “Quantitative fragmentomics allow affinity mapping of interactomes” (Nature Communications, 2022):

What was measured:
Assay in all cases: holdup assay
Design in all cases: key: below the threshold = too weak to quantify, mostly under pKd 3.1 to 4
[1] = target: MAGI2_2, Q86UL8
[2] = target: T1, PTPN13_1, Q12923
T1 sequence (Q12923 1088-1188, limits assumed, looked up): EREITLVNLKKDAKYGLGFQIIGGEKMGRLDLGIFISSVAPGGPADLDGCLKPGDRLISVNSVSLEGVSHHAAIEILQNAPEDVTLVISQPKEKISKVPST

[3] = target: T2, NHERF3_3, Q5T2W1
T2 sequence (Q5T2W1 238-333, limits assumed, looked up): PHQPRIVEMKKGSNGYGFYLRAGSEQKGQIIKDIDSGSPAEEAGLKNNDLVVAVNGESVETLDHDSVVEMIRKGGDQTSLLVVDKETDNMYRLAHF

[4] = target: Inadl_2, Q8NI35
Sequence of Inadl_2, Q8NI35 (Q8NI35 238-335): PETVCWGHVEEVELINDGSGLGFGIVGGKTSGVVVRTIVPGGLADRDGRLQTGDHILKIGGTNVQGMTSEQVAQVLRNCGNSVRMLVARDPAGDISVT

[5] = target: T3, APBA2_1, Q99767
T3 sequence (Q99767 563-664, limits assumed, looked up): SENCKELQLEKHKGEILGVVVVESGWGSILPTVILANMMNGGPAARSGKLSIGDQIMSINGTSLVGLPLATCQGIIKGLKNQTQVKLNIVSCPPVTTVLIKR

[6] = target: T4, NHERF3_4, Q5T2W1
T4 sequence (Q5T2W1 373-468, limits assumed, looked up): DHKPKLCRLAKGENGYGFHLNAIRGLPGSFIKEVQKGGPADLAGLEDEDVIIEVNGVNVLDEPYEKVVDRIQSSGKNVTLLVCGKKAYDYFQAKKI

[7] = target: GRID2IP_1, A4D2P6
Sequence of GRID2IP_1, A4D2P6 (A4D2P6 1-87): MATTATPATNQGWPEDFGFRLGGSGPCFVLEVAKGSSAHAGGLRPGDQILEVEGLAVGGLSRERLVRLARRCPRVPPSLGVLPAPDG

[8] = target: Inadl_5, Q8NI35
Sequence of Inadl_5, Q8NI35 (Q8NI35 673-780): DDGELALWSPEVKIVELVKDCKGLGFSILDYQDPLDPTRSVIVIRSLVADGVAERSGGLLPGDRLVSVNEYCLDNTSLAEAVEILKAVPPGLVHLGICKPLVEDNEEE

[9] = target: T5, APBA1_1, Q02410
T5 sequence (Q02410 651-752, limits assumed, looked up): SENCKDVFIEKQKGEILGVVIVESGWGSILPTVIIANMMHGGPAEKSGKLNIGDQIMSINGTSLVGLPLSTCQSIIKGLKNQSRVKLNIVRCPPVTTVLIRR

[10] = target: HTRA2, O43464
Sequence of HTRA2, O43464 (O43464 355-458): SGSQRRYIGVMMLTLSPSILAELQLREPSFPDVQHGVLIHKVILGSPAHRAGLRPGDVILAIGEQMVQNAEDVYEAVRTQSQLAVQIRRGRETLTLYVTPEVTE

[11] = target: T6, NHERF3_1, Q5T2W1
T6 sequence (Q5T2W1 4-100, limits assumed, looked up): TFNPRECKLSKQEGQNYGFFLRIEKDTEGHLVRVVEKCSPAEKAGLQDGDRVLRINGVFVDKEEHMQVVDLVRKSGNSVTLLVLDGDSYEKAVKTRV

[12] = target: DLG1_2, Q12959
[13] = target: T7, DFNB31_1, Q9P202
T7 sequence (Q9P202 135-233, limits assumed, looked up): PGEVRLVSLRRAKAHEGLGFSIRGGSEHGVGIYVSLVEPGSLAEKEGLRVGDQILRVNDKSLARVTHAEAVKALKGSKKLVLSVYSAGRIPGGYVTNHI

[14] = target: T8, GRIP1_7, Q9Y3R0
T8 sequence (Q9Y3R0 999-1096, limits assumed, looked up): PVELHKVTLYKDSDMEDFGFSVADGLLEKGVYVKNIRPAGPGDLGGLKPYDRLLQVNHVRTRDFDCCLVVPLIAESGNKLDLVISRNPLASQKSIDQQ

[15] = target: DLG1_1, Q12959
[16] = target: DLG1_3, Q12959
[17] = target: FRMPD3, Q5JV73
Sequence of FRMPD3, Q5JV73 (Q5JV73 12-100): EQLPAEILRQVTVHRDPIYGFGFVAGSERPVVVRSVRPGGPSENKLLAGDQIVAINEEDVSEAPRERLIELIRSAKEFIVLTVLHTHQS

[18] = target: GRIP2_7, Q9C0E4
Sequence of GRIP2_7, Q9C0E4 (Q9C0E4 934-1023): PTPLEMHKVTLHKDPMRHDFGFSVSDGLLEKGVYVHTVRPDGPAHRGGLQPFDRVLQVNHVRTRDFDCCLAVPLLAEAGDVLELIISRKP

[19] = target: T9, FRMPD1, Q5SYB0
T9 sequence (Q5SYB0 52-145, limits assumed, looked up): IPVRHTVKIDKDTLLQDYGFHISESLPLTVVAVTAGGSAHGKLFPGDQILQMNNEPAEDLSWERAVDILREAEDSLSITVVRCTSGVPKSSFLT

[20] = target: MAGI2_3, Q86UL8
Sequence of MAGI2_3, Q86UL8 (Q86UL8 600-682): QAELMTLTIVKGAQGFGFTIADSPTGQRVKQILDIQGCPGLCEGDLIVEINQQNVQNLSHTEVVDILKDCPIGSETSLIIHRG

[21] = target: T10, LRRC7, Q96NW7
T10 sequence (Q96NW7 1440-1537, limits assumed, looked up): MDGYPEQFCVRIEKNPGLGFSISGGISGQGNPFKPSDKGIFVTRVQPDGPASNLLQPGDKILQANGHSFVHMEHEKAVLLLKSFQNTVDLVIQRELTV

[22] = target: T11, APBA3_1, O96018
T11 sequence (O96018 389-490, limits assumed, looked up): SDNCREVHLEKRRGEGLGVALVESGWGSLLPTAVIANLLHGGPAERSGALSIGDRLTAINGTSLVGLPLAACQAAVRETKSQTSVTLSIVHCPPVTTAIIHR

[23] = target: FRMPD4, Q14CM0
Sequence of FRMPD4, Q14CM0 (Q14CM0 67-160): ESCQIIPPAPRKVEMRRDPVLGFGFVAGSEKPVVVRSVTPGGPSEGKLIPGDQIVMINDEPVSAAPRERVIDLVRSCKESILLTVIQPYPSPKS

[24] = target: IL16_4, Q14005
Sequence of IL16_4, Q14005 (Q14005 1229-1329): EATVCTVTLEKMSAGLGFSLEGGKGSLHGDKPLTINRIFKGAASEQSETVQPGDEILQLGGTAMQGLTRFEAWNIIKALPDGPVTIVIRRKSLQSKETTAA

[25] = target: DLG2_3, Q15700
[26] = target: T12, APBA1_2, Q02410
T12 sequence (Q02410 742-832, limits assumed, looked up): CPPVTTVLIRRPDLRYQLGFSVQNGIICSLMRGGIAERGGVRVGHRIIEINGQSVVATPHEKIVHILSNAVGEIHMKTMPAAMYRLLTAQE

[27] = plain residues with an end cap or a label only (N-terminal biotin on a linker: ado-ado)
[28] = modified: phospho on T at position -2 from the C-terminal residue

Sequence of MAGI2_2, Q86UL8 (Q86UL8 410-522): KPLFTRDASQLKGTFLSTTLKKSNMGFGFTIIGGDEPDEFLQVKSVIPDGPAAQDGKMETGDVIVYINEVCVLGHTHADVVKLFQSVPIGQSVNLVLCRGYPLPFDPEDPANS

B1: DGKH, Q86XP1 (peptide)
chain: LGRSTPQSEV
- pKd [1, 27]: 3.58
- pKd [2, 27]: below the threshold
- pKd [3, 27]: below the threshold
- pKd [4, 27]: below the threshold
- pKd [5, 27]: below the threshold
- pKd [6, 27]: below the threshold
- pKd [7, 27]: below the threshold
- pKd [8, 27]: below the threshold
- pKd [9, 27]: below the threshold
- pKd [10, 27]: below the threshold
- pKd [11, 27]: below the threshold
- pKd [12, 27]: 4.01
- pKd [13, 27]: 3.52
- pKd [14, 27]: below the threshold
- pKd [15, 27]: below the threshold
- pKd [16, 27]: below the threshold
- pKd [17, 27]: below the threshold
- pKd [18, 27]: below the threshold
- pKd [19, 27]: below the threshold
- pKd [20, 27]: below the threshold
- pKd [21, 27]: below the threshold
- pKd [22, 27]: below the threshold
- pKd [23, 27]: below the threshold
- pKd [24, 27]: below the threshold
- pKd [25, 27]: below the threshold
- pKd [26, 27]: 3.64

B2: GRIK2, Q13002 (peptide)
chain: RRLPGKETMA
- pKd [1, 27]: below the threshold
- pKd [2, 27]: below the threshold
- pKd [3, 27]: below the threshold
- pKd [4, 27]: below the threshold
- pKd [5, 27]: below the threshold
- pKd [6, 27]: below the threshold
- pKd [7, 27]: below the threshold
- pKd [8, 27]: below the threshold
- pKd [9, 27]: below the threshold
- pKd [10, 27]: below the threshold
- pKd [11, 27]: below the threshold
- pKd [12, 27]: 3.66
- pKd [13, 27]: below the threshold
- pKd [14, 27]: below the threshold
- pKd [15, 27]: below the threshold
- pKd [16, 27]: 3.69
- pKd [17, 27]: below the threshold
- pKd [18, 27]: below the threshold
- pKd [19, 27]: below the threshold
- pKd [20, 27]: below the threshold
- pKd [21, 27]: below the threshold
- pKd [22, 27]: below the threshold
- pKd [23, 27]: below the threshold
- pKd [24, 27]: below the threshold
- pKd [25, 27]: 3.8
- pKd [26, 27]: below the threshold

B3: HPV35-E6_-2P, P27228 (peptide)
chain: SKPTRRETEV
- pKd [1, 28]: below the threshold
- pKd [2, 28]: below the threshold
- pKd [3, 28]: below the threshold
- pKd [4, 28]: below the threshold
- pKd [5, 28]: below the threshold
- pKd [6, 28]: below the threshold
- pKd [7, 28]: below the threshold
- pKd [8, 28]: below the threshold
- pKd [9, 28]: below the threshold
- pKd [10, 28]: below the threshold
- pKd [11, 28]: below the threshold
- pKd [12, 28]: below the threshold
- pKd [13, 28]: below the threshold
- pKd [14, 28]: below the threshold
- pKd [15, 28]: below the threshold
- pKd [16, 28]: below the threshold
- pKd [17, 28]: below the threshold
- pKd [18, 28]: below the threshold
- pKd [19, 28]: below the threshold
- pKd [20, 28]: below the threshold
- pKd [21, 28]: below the threshold
- pKd [22, 28]: below the threshold
- pKd [23, 28]: below the threshold
- pKd [24, 28]: below the threshold
- pKd [25, 28]: 3.52
- pKd [26, 28]: below the threshold

B4: DCAF7, P61962 (peptide)
chain: YNNCLEILRV
- pKd [1, 27]: below the threshold
- pKd [2, 27]: below the threshold
- pKd [3, 27]: below the threshold
- pKd [4, 27]: 3.65
- pKd [5, 27]: below the threshold
- pKd [6, 27]: below the threshold
- pKd [7, 27]: below the threshold
- pKd [8, 27]: below the threshold
- pKd [9, 27]: below the threshold
- pKd [10, 27]: 4.66
- pKd [11, 27]: below the threshold
- pKd [12, 27]: below the threshold
- pKd [13, 27]: below the threshold
- pKd [14, 27]: below the threshold
- pKd [15, 27]: below the threshold
- pKd [16, 27]: below the threshold
- pKd [17, 27]: below the threshold
- pKd [18, 27]: below the threshold
- pKd [19, 27]: below the threshold
- pKd [20, 27]: below the threshold
- pKd [21, 27]: below the threshold
- pKd [22, 27]: below the threshold
- pKd [23, 27]: below the threshold
- pKd [24, 27]: below the threshold
- pKd [25, 27]: below the threshold
- pKd [26, 27]: below the threshold
